From publication PMC9371921, “Strand annealing and motor driven activities of SMARCAL1 and ZRANB3 are stimulated by RAD51 and the paralog complex” (Nucleic Acids Research, 2022)

Target: T1, RAD51B;RAD51C;RAD51D;XRCC2 (Homo sapiens;Homo sapiens;Homo …, UniProt O15315;O43502;O75771;O43543 1-384;1-376;1-328;1-280, |||)
T1 sequence 1: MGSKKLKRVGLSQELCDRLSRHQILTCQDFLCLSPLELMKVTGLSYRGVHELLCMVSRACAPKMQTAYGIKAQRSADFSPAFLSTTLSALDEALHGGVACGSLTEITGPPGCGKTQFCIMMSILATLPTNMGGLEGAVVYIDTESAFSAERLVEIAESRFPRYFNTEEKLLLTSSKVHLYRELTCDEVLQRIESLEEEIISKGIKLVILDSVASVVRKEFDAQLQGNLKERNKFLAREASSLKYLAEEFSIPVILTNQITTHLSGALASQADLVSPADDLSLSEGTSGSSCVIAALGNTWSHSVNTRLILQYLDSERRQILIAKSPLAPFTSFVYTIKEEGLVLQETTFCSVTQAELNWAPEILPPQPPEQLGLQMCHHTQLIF
T1 sequence 2: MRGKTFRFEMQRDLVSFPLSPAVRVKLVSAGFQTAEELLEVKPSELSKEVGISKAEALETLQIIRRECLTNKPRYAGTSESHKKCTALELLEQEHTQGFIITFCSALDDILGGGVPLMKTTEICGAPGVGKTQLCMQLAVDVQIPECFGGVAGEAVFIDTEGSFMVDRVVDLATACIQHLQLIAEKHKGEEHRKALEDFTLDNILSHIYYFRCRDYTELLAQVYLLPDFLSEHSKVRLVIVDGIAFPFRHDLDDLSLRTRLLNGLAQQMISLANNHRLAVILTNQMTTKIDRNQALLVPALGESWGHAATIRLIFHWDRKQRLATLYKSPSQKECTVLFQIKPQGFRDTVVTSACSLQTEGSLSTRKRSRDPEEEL
T1 sequence 3: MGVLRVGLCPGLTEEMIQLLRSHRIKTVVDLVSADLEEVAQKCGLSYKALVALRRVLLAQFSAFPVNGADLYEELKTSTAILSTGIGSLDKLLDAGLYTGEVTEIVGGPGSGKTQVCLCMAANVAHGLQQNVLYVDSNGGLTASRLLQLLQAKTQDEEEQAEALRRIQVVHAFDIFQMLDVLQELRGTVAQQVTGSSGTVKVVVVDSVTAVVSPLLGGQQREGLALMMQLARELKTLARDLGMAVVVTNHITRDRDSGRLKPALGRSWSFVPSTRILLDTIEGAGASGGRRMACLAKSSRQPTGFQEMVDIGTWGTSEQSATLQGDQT
T1 sequence 4: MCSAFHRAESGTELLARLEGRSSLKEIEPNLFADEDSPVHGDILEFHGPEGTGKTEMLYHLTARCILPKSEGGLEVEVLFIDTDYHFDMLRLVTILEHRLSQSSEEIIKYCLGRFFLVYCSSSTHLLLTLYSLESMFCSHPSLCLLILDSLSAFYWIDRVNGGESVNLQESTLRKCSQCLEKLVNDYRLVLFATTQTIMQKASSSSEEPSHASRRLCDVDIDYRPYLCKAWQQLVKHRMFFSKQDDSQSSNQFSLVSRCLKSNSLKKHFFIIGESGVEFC
Assay: EMSA; 1 mM ATP, 1 mM Mg acetate; EMSA: 1 nM DNA, 20 mM Tris-acetate pH 7.5, 1 mM DTT, 1 mM magnesium acetate, 0.1 mg/ml BSA, 1 mM ATP, 30 min at 37 C; 6% PAGE in 1x TBE at 4 C
Details: protein: recombinant;recombinant;recombinant;recombinant; tags: FLAG;10xHis;none;none; copies: 1;1;1;1; label: 5'-32P

B1: 70-mer ssDNA (PC210) (ssDNA)
DNA: GTAAGTGCCGCGGTGCGGGTGCCAGGGCGTGCCCTTGGGCTCCCCGGGCGCGTACTCCACCTCATGCATC
B1: binds.
